Patent US10100120B2, “Antibody which specifically binds to human CRTH2” (KYOWA HAKKO KIRIN CO., LTD, priority 2015, dated 2018)
Numbering of substitutions follows the chain as printed.

Key:
[1] = molecular target: T1, mutated human CRTH2 with amino acid substitution (Homo sapiens, UniProt Q9Y5Y4, D196A/T198A); test: Epitope analysis using CHO-S cells which express mutated human CRTH2 with amino acid substitution; type: binding; details: mutant D196A and T198A; antibody 10 μg/mL; relative to wild-type = 100%
T1 construct: inserting genes encoding various mutants with amino acid substitution obtained by deleting termination codons; expressed in transfected cells; host or cells: CHO-S cells (Lifetechnologies), transient (phmAG1-MNLinker vector)
T1 sequence (Q9Y5Y4 1-395 D196A/T198A): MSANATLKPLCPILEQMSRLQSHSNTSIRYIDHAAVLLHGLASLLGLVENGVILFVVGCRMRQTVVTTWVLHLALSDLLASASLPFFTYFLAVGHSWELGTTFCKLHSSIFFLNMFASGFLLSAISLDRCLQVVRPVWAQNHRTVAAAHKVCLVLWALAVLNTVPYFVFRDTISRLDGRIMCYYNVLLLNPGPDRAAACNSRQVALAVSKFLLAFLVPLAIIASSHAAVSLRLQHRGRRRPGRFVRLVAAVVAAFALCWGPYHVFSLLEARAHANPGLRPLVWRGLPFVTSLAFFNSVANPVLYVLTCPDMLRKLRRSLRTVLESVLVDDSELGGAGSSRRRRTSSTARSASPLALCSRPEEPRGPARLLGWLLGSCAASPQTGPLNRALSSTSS
Procedure, shortened: (§1)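 CHO-S cells transiently expressing alanine-substituted human CRTH2 extracellular mutants, C-terminally Azami-Green tagged, 24 h post-transfection. Antibodies at 10 μg/mL, 4 °C 1 h, then Alexa647 anti-IgG secondary 4 °C 1 h; flow cytometry on Azami-Green-positive cells. Reactivity = Alexa647 intensity divided by Azami-Green intensity.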

[2] = molecular target: T2, mutated human CRTH2 with amino acid substitution (Homo sapiens, UniProt Q9Y5Y4, I180A/M181A); test: as above; type: binding; details: mutant I180A and M181A; antibody 10 μg/mL; relative to wild-type = 100%
T2 construct: inserting genes encoding various mutants with amino acid substitution obtained by deleting termination codons; expressed in transfected cells; host or cells: CHO-S cells (Lifetechnologies), transient (phmAG1-MNLinker vector)
T2 sequence (Q9Y5Y4 1-395 I180A/M181A): T1 sequence (Q9Y5Y4 1-395 D196A/T198A) with I180A, M181A, A196D, A198T
Procedure, shortened: as §1

- reactivity against cells expressing mutated human CRTH2 [1]: lost
- reactivity against cells expressing mutated human CRTH2 [2]: lost
B1: LV0HV1: humanized Lym2 antibody, VL LV0 (SEQ ID NO: 33), VH HV1 (SEQ ID NO: 51) (antibody, V domains shown)
VH: EVQLVESGGGVVQPGRSLRLSCAASGFTFSNYYMAWVRQAPGKGLEWVATISYDGSSTYYRDSVKGRFTISRDNAKNSLYLQMNSLRAEDTATYYCARHRGYYYSGAGYFDYWGQGTMVTVSS
VL: DIVMTQTPLSLPVTPGESASISCRSSQSLEYSDGYTYLEWYLQKPGQSPQVLIYGVSNRFSGVPDRFSGSGSGTDFTLKISRVEAEDVGVYYCFQATHDPLTFGQGTKLEIK
